Experimental findings from US20230122079A1 (published 2023) are described below.

By EC50 is commonly meant the concentration at which the effect is half-maximal.

Assay [1] concerns the target CD3 on Jurkat cells (human). The assay is described as follows: cell ELISA. A general note: ELISA stands for enzyme-linked immunosorbent assay.
Assay [2] deals with CD3 on Jurkat cells (human). In words: cell ELISA; -uPa.
The target in assay [3] is CD3 on Jurkat cells (human). The assay is described as follows: cell ELISA; +uPa.

Chain of CD3 on Jurkat cells (human) (chain, as listed by the source, chain 1 of 4): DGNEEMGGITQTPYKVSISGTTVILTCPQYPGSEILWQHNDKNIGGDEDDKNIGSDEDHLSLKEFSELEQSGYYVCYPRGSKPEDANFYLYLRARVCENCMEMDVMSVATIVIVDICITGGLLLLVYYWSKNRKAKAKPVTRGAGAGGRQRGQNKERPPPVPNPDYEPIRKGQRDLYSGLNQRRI
Chain of CD3 on Jurkat cells (human) (chain, as listed by the source, chain 2 of 4): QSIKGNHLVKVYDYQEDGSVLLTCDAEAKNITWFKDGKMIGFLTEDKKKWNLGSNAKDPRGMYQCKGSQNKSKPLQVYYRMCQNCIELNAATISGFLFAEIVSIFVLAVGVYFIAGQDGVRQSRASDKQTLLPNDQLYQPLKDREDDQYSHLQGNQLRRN
Chain of CD3 on Jurkat cells (human) (chain, as listed by the source, chain 3 of 4): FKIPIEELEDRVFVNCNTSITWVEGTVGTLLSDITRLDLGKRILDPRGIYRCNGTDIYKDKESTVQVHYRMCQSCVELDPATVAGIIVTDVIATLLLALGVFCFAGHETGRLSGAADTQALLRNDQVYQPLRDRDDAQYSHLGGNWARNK
Chain of CD3 on Jurkat cells (human) (chain, as listed by the source, chain 4 of 4): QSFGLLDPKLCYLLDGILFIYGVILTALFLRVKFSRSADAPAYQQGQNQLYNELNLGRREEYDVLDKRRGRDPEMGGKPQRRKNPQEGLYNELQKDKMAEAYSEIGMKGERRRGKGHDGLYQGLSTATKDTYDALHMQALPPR

B1: 31929 (Half-masked CD3 × Her2 Fab × scFv Fc, HA PD-1 attached to HC) (bispecific antibody)
heavy: not shown
light: DIQMTQSPSSLSASVGDRVTMTCSASSSVSYMNWYQQKPGKAPKRWIYDSSKLASGVPARFSGSGSGTDYTLTISSLQPEDFATYYCQQWSRNPPTFGGGTKLQITRTVAAPSVFIFPPSDEQLKSGTASVVCLLNNFYPREAKVQWKVDNALQSGNSQESVTEQDSKDSTYSLSSTLTLSKADYEKHKVYACEVTHQGLSSPVTKSFNRGEC
chain: not shown
B1 registered an EC50 in assay [1] of 4.2 nM.

B2: 30421 (CD3 × Her2 Fab × scFv Fc without mask) (bispecific antibody)
heavy: not shown
light: DIQMTQSPSSLSASVGDRVTMTCSASSSVSYMNWYQQKPGKAPKRWIYDSSKLASGVPARFSGSGSGTDYTLTISSLQPEDFATYYCQQWSRNPPTFGGGTKLQITRTVAAPSVFIFPPSDEQLKSGTASVVCLLNNFYPREAKVQWKVDNALQSGNSQESVTEQDSKDSTYSLSSTLTLSKADYEKHKVYACEVTHQGLSSPVTKSFNRGEC
chain: not shown
B2: the EC50 in assay [1] came to 1.22 nM. This EC50 lies about 3.4-fold lower than the previous one.

B3: 30436 (WT PD-1: HA PD-L1 masked CD3 × Her2 Fab × scFv Fc, PD-1 cleavable), not treated with uPa (bispecific antibody)
heavy: not shown
light: AFTVTVPKDLYVVEYGSNMTIECKFPVEKQLDLAALQVFWMMEDKNIIQFVHGEEDLKVQHSSYRQRARLLKDQLSLGNAALQITDVKLQDAGVYTCLIAYKGADYKRITVKVNAEAAAKEAAAKDIQMTQSPSSLSASVGDRVTMTCSASSSVSYMNWYQQKPGKAPKRWIYDSSKLASGVPARFSGSGSGTDYTLTISSLQPEDFATYYCQQWSRNPPTFGGGTKLQITRTVAAPSVFIFPPSDEQLKSGTASVVCLLNNFYPREAKVQWKVDNALQSGNSQESVTEQDSKDSTYSLSSTLTLSKADYEKHKVYACEVTHQGLSSPVTKSFNRGEC
chain: not shown
The molecule B3 displayed a 50% effective concentration (EC50) in assay [2] of 178 nM.

B4: 31931 (Half-masked CD3 × Her2 Fab × scFv Fc, HA PD-L1 attached to LC) (bispecific antibody)
heavy: not shown
light: AFTVTVPKDLYVVEYGSNMTIECKFPVEKQLDLAALQVFWMMEDKNIIQFVHGEEDLKVQHSSYRQRARLLKDQLSLGNAALQITDVKLQDAGVYTCLIAYKGADYKRITVKVNAEAAAKEAAAKDIQMTQSPSSLSASVGDRVTMTCSASSSVSYMNWYQQKPGKAPKRWIYDSSKLASGVPARFSGSGSGTDYTLTISSLQPEDFATYYCQQWSRNPPTFGGGTKLQITRTVAAPSVFIFPPSDEQLKSGTASVVCLLNNFYPREAKVQWKVDNALQSGNSQESVTEQDSKDSTYSLSSTLTLSKADYEKHKVYACEVTHQGLSSPVTKSFNRGEC
chain: not shown
Take B4: in assay [1], the response was half-maximal at 5.33 nM (EC50). This counts as single-digit nanomolar.

B5: 30436 treated with uPa (bispecific antibody)
heavy: not shown
light: AFTVTVPKDLYVVEYGSNMTIECKFPVEKQLDLAALQVFWMMEDKNIIQFVHGEEDLKVQHSSYRQRARLLKDQLSLGNAALQITDVKLQDAGVYTCLIAYKGADYKRITVKVNAEAAAKEAAAKDIQMTQSPSSLSASVGDRVTMTCSASSSVSYMNWYQQKPGKAPKRWIYDSSKLASGVPARFSGSGSGTDYTLTISSLQPEDFATYYCQQWSRNPPTFGGGTKLQITRTVAAPSVFIFPPSDEQLKSGTASVVCLLNNFYPREAKVQWKVDNALQSGNSQESVTEQDSKDSTYSLSSTLTLSKADYEKHKVYACEVTHQGLSSPVTKSFNRGEC
chain: not shown
Regarding B5, the midpoint of the response in assay [3], the EC50, lay at 6.22 nM.
